# Laboratory results from the supplement of paper PMC5998384.
# Key:
# [1] = test system: HeLa Kyoto; assay: solubility in G1/S (NP-40 vs SDS abundance) (log2 ratio); higher = more soluble; settings: cell cycle stage: G1/S
# [2] = test system: HeLa Kyoto; assay: solubility change mitosis vs G1/S (difference of NP-40 vs SDS log2 ratios) (log2 ratio difference); higher = more soluble in mitosis
# 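Throughout, for solubility change mitosis vs G1/S (difference of NP-40 vs SDS log2 ratios): synchronized HeLa Kyoto cells (double thymidine block for G1/S, nocodazole release for mitosis), protein amounts in NP-40 versus SDS lysates quantified by mass spectrometry, three biological replicates.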
# 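Throughout, for solubility in G1/S (NP-40 vs SDS abundance): HeLa Kyoto cells arrested at G1/S by double thymidine block, proteins quantified by TMT10plex mass spectrometry in mild NP-40 versus SDS extracts, three biological replicates.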
Sequence,solubility in G1/S (log2) [1],solubility change mitosis (log2) [2]
MATPRGRTKKKASFDHSPDSLPLRSSGRQAKKKATETTDEDEDGGSEKKYRKCEKAGCTATCPVCFASASERCAKNGYTSRWYHLSCGEHFCNECFDHYYRSHKDGYDKYTTWKKIWTSNGKTEPSPKAFMADQQLPYWVQCTKPECRKWRQLTKEIQLTPQIAKTYRCGMKPNTAIKPETSDHCSLPEDLRVLEVSNHWWYSMLILPPLLKDSVAAPLLSAYYPDCVGMSPSCTSTNRAAATGNASPGKLEHSKAALSVHVPGMNRYFQPFYQPNECGKALCVRPDVMELDELYEFPEYSRDPTMYLALRNLILALWYTNCKEALTPQKCIPHIIVRGLVRIRCVQEVERILYFMTRKGLINTGVLSVGADQYLLPKDYHNKSVIIIGAGPAGLAAARQLHNFGIKVTVLEAKDRIGGRVWDDKSFKGVTVGRGAQIVNGCINNPVALMCEQLGISMHKFGERCDLIQEGGRITDPTIDKRMDFHFNALLDVVSEWRKDKTQLQDVPLGEKIEEIYKAFIKESGIQFSELEGQVLQFHLSNLEYACGSNLHQVSARSWDHNEFFAQFAGDHTLLTPGYSVIIEKLAEGLDIQLKSPVQCIDYSGDEVQVTTTDGTGYSAQKVLVTVPLALLQKGAIQFNPPLSEKKMKAINSLGAGIIEKIALQFPYRFWDSKVQGADFFGHVPPSASKRGLFAVFYDMDPQKKHSVLMSVIAGEAVASVRTLDDKQVLQQCMATLRELFKEQEVPDPTKYFVTRWSTDPWIQMAYSFVKTGGSGEAYDIIAEDIQGTVFFAGEATNRHFPQTVTGAYLSGVREASKIAAF [KDM1B],-0.371,0.0563
MATVGAPRHFCRCACFCTDNLYVARYGLHVRFRGEQQLRRDYGPILRSRGCVSAKDFQQLLAELEQEVERRQRLGQESAARKALIASSYHPARPEVYDSLQDAALAPEFLAVTEYSVSPDADLKGLLQRLETVSEEKRIYRVPVFTAPFCQALLEELEHFEQSDMPKGRPNTMNNYGVLLHELGLDEPLMTPLRERFLQPLMALLYPDCGGGRLDSHRAFVVKYAPGQDLELGCHYDNAELTLNVALGKVFTGGALYFGGLFQAPTALTEPLEVEHVVGQGVLHRGGQLHGARPLGTGERWNLVVWLRASAVRNSLCPMCCREPDLVDDEGFGDGFTREEPATVDVCALT [OGFOD2],0.182,0.112
MAVLGVQLVVTLLTATLMHRLAPHCSFARWLLCNGSLFRYKHPSEEELRALAGKPRPRGRKERWANGLSEEKPLSVPRDAPFQLETCPLTTVDALVLRFFLEYQWFVDFAVYSGGVYLFTEAYYYMLGPAKETNIAVFWCLLTVTFSIKMFLTVTRLYFSAEEGGERSVCLTFAFLFLLLAMLVQVVREETLELGLEPGLASMTQNLEPLLKKQGWDWALPVAKLAIRVGLAVVGSVLGAFLTFPGLRLAQTHRDALTMSEDRPMLQFLLHTSFLSPLFILWLWTKPIARDFLHQPPFGETRFSLLSDSAFDSGRLWLLVVLCLLRLAVTRPHLQAYLCLAKARVEQLRREAGRIEAREIQQRVVRVYCYVTVVSLQYLTPLILTLNCTLLLKTLGGYSWGLGPAPLLSPDPSSASAAPIGSGEDEVQQTAARIAGALGGLLTPLFLRGVLAYLIWWTAACQLLASLFGLYFHQHLAGS [TMEM161A],-0.184,-0.0501
MAVTEASLLRQCPLLLPQNRSKTVYEGFISAQGRDFHLRIVLPEDLQLKNARLLCSWQLRTILSGYHRIVQQRMQHSPDLMSFMMELKMLLEVALKNRQELYALPPPPQFYSSLIEEIGTLGWDKLVYADTCFSTIKLKAEDASGREHLITLKLKAKYPAESPDYFVDFPVPFCASWTPQSSLISIYSQFLAAIESLKAFWDVMDEIDEKTWVLEPEKPPRSATARRIALGNNVSINIEVDPRHPTMLPECFFLGADHVVKPLGIKLSRNIHLWDPENSVLQNLKDVLEIDFPARAILEKSDFTMDCGICYAYQLDGTIPDQVCDNSQCGQPFHQICLYEWLRGLLTSRQSFNIIFGECPYCSKPITLKMSGRKH [FANCL],0.184,0.0266
